Values belong to the binder of their own block, whether it stands above or below them.
Assays:
[1] = molecular target: T1, recombinant KIR2DS4 (extracellular domain-Fc-Avi, in-house) (human); experiment: flow cytometry, KIR-Fc on scFv-K562 cells
T1 construct: In-house; IL-2 signal peptide left out; also called soluble KIR2DS4

[2] = molecular target: T2, recombinant KIR2DS1 (extracellular domain-Fc-Avi, in-house) (human); experiment: flow cytometry, KIR-Fc on scFv-K562 cells
T2 construct: In-house; IL-2 signal peptide left out; also called soluble KIR2DS1

[3] = molecular target: T3, recombinant KIR2DS2 (extracellular domain-Fc-Avi, in-house) (human); experiment: flow cytometry, KIR-Fc on scFv-K562 cells
T3 construct: In-house; IL-2 signal peptide left out; also called soluble KIR2DS2

[4] = molecular target: T4, KIR3DL1 (Fc, R&D system 1225-KR-050) (UniProt P43629 22-340); experiment: flow cytometry, tagged protein on scFv-K562 cells
T4 construct: Bought Fc-tagged protein

[5] = molecular target: KIR2DS3 (Fc, prepared in-house) (UniProt Q14952 22-245, limits assumed); experiment: flow cytometry, tagged protein on scFv-K562 cells
[6] = molecular target: T5, CD161 (Fc, R&D system 7448-CD-050) (UniProt Q12918 67-225); experiment: flow cytometry, tagged protein on scFv-K562 cells
T5 construct: Bought Fc-tagged protein

[7] = molecular target: T6, NKp44 (Fc, R&D system 2249-NK-050) (UniProt O95944 22-190, limits assumed); experiment: flow cytometry, tagged protein on scFv-K562 cells
T6 construct: Bought Fc-tagged protein
T6 sequence (looked up): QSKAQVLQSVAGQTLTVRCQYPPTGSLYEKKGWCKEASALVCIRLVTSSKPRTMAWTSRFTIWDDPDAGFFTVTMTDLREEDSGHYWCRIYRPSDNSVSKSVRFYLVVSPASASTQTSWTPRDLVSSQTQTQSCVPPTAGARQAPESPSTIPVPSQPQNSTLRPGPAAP

[8] = molecular target: T7, TIGIT (Fc, R&D system 9464-TG-050) (UniProt Q495A1 22-141); experiment: flow cytometry, tagged protein on scFv-K562 cells
T7 construct: Bought Fc-tagged protein
T7 sequence (looked up): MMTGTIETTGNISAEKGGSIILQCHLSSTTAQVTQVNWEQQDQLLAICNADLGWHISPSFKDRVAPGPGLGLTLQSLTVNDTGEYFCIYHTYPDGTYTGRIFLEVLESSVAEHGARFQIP

[9] = molecular target: T8, CD32b/c (Fc, R&D system 1875-CD-050) (UniProt P31994 46-217); experiment: flow cytometry, tagged protein on scFv-K562 cells
T8 sequence (looked up): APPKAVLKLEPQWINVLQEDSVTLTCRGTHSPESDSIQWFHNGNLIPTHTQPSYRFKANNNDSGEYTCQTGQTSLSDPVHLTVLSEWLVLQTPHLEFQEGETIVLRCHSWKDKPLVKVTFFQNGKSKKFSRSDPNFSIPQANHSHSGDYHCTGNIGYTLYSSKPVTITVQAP

[10] = molecular target: T9, NKp46 (Fc, R&D system 1850-NK-025) (UniProt O76036 22-258, limits assumed); experiment: flow cytometry, tagged protein on scFv-K562 cells
T9 construct: Bought Fc-tagged protein

[11] = molecular target: T10, KIR2DL4 (Fc, R&D system 2238-KR-050) (UniProt Q99706 24-242, limits assumed); experiment: flow cytometry, tagged protein on scFv-K562 cells
T10 construct: Bought Fc-tagged protein

[12] = molecular target: CD64 (Fc, R&D system 1257-FC-050) (UniProt P12314 16-288); experiment: flow cytometry, tagged protein on scFv-K562 cells
[13] = molecular target: T11, NKG2D (Fc, R&D system 1299-NK-050) (UniProt P26718 78-216); experiment: flow cytometry, tagged protein on scFv-K562 cells
T11 construct: Bought Fc-tagged protein
T11 sequence (looked up): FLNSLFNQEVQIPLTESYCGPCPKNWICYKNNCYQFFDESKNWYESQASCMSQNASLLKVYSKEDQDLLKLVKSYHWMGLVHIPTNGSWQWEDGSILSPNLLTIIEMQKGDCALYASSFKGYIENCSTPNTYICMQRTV

[14] = molecular target: T12, KIR3DL3 (Fc, R&D system 10104-KR-050) (UniProt Q8N743 26-322, limits assumed); experiment: flow cytometry, tagged protein on scFv-K562 cells
T12 construct: Bought Fc-tagged protein

[15] = molecular target: T13, NKG2A (Fc, R&D system 10511-NK-050) (UniProt P26715 94-233, limits assumed); experiment: flow cytometry, tagged protein on scFv-K562 cells
T13 construct: Bought Fc-tagged protein

[16] = molecular target: T14, CD32a (Fc, R&D system 1330-CD-050) (UniProt P12318 36-218); experiment: flow cytometry, tagged protein on scFv-K562 cells
T14 sequence (looked up): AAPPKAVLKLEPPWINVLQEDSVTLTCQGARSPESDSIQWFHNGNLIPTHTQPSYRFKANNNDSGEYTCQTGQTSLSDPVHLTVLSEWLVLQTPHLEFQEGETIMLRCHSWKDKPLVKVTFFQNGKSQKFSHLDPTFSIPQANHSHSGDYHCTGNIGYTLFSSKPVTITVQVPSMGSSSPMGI

[17] = molecular target: T15, LILRB2 (His, R&D system 8429-T4-050) (UniProt Q8N423 22-458); experiment: flow cytometry, tagged protein on scFv-K562 cells
T15 construct: Bought His-tagged protein

[18] = molecular target: CD16b (Fc, R&D system 1597-FC-050) (UniProt O75015 17-200, limits assumed); experiment: flow cytometry, tagged protein on scFv-K562 cells
[19] = molecular target: T16, KIR2DL1 (Fc, R&D system 1844-KR-050) (UniProt P43626 22-245); experiment: flow cytometry, tagged protein on scFv-K562 cells
T16 construct: Bought Fc-tagged protein

[20] = molecular target: CD16a (Fc, R&D system 4325-FC-050) (UniProt P08637 17-208); experiment: flow cytometry, tagged protein on scFv-K562 cells
[21] = molecular target: T17, recombinant human KIR3DS1/CD158e2 Fc chimera protein (4136-KR-050, R&D Systems) (human, UniProt Q14943 22-340, limits assumed); experiment: flow cytometry, tagged protein on scFv-K562 cells
T17 construct: Bought Fc chimera; also called soluble KIR3DS1; recombinant KIR3DS1

[22] = molecular target: T18, LILRB1 (Fc, R&D system 2017-T2-050) (UniProt Q8NHL6 24-458); experiment: flow cytometry, tagged protein on scFv-K562 cells
T18 construct: Bought Fc-tagged protein

[23] = molecular target: T19, NKp30 (Fc, R&D system 1849-NK-025) (UniProt O14931 19-138, limits assumed); experiment: flow cytometry, tagged protein on scFv-K562 cells
T19 construct: Bought Fc-tagged protein
T19 sequence (looked up): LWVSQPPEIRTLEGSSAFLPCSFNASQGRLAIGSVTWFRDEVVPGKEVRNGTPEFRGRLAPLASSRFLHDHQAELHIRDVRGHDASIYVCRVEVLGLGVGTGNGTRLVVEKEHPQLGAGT

[24] = molecular target: T20, NKG2E (Fc, R&D system 9759-NK-050) (UniProt Q07444 94-240, limits assumed); experiment: flow cytometry, tagged protein on scFv-K562 cells
T20 construct: Bought Fc-tagged protein

[25] = molecular target: T21, KIR2DL5 (Fc, R&D system 6634-KR-050) (UniProt Q8N109 22-238, limits assumed); experiment: flow cytometry, tagged protein on scFv-K562 cells
T21 construct: Bought Fc-tagged protein

[26] = molecular target: T22, NKG2C (Fc, R&D system 138-NK-050) (UniProt P26717 94-231, limits assumed); experiment: flow cytometry, tagged protein on scFv-K562 cells
T22 construct: Bought Fc-tagged protein

[27] = molecular target: T23, KIR2DL2 (22-225)-His, deglycosylated (human, UniProt P43627 22-225); experiment: size exclusion chromatography of the mixed proteins; complex then crystallised
T23 construct: IL-2 signal peptide left out; treated with Protein Deglycosylation Mix II; also called recombinant KIR2DL2

T18 sequence (Q8NHL6 24-458 limits assumed): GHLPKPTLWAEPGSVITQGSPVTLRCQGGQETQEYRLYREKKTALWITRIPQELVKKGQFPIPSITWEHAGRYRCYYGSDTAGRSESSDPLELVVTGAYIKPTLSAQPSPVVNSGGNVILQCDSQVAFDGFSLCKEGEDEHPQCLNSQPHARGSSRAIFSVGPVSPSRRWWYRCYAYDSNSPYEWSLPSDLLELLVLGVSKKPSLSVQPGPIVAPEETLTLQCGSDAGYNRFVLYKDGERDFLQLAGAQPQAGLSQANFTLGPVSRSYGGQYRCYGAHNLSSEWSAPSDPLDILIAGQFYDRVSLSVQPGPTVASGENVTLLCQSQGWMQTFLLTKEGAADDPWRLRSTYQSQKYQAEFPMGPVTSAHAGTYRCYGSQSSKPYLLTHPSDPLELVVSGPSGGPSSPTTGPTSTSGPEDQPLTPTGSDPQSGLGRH
T3 sequence (chain, as listed by the source): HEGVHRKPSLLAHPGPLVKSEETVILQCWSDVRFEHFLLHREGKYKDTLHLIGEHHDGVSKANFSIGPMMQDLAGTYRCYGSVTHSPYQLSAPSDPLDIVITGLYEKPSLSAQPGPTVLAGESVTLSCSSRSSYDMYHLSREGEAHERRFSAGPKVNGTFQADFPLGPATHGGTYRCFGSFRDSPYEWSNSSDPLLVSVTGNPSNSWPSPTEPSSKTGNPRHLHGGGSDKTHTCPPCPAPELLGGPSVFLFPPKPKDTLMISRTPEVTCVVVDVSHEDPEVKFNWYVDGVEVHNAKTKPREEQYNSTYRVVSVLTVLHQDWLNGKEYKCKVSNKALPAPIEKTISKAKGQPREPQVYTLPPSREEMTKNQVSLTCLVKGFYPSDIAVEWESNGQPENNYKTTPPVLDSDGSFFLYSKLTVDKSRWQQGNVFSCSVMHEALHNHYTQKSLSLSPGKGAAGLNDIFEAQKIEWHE
T4 sequence (P43629 22-340 limits assumed): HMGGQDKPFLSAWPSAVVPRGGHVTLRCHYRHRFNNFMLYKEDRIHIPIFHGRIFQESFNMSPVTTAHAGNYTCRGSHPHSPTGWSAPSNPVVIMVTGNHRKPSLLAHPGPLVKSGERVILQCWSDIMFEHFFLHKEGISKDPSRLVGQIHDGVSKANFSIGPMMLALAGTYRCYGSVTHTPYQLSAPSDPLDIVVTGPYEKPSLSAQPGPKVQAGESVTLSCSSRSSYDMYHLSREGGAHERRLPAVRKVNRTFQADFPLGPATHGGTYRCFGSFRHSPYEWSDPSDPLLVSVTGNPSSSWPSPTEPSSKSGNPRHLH
T16 sequence (P43626 22-245 limits assumed): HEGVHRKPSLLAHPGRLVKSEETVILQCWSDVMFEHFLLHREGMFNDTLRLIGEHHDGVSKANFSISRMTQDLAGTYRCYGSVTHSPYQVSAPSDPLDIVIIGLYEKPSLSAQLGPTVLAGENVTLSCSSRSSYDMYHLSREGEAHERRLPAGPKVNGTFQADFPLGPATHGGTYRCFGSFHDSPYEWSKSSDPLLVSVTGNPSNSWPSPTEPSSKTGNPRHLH
T13 sequence (P26715 94-233 limits assumed): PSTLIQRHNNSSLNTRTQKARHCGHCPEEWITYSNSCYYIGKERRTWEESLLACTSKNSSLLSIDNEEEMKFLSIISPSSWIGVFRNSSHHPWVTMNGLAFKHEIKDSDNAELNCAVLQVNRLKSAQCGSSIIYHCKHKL
T2 sequence (chain, as listed by the source): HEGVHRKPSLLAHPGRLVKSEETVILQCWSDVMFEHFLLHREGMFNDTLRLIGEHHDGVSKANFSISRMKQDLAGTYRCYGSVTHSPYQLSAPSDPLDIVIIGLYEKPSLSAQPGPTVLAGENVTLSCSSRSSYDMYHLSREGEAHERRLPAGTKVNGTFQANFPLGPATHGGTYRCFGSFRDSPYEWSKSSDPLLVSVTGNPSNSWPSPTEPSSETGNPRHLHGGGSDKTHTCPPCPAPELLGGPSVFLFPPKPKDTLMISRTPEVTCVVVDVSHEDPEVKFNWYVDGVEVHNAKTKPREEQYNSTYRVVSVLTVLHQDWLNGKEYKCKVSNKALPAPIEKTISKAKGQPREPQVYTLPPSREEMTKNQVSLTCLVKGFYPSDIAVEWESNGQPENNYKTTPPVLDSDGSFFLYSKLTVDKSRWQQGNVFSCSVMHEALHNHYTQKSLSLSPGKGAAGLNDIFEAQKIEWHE
Chain of CD64 (Fc, R&D system 1257-FC-050) (P12314 16-288 limits assumed): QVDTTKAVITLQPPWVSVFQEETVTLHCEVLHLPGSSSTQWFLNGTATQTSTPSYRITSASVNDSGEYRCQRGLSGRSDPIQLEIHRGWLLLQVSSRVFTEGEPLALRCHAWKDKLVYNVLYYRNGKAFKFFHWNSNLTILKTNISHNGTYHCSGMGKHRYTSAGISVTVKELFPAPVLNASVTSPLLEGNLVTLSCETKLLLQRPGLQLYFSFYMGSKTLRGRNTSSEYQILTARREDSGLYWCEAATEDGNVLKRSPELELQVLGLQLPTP
T17 sequence (Q14943 22-340 limits assumed, change not shown): as the sequence (P43629 22-340 limits assumed) above, with I47V, S58G, V92M, K136R, G138W, P163S, L166R, P199L, P315L counted along it
Chain of CD16b (Fc, R&D system 1597-FC-050) (O75015 17-200 limits assumed): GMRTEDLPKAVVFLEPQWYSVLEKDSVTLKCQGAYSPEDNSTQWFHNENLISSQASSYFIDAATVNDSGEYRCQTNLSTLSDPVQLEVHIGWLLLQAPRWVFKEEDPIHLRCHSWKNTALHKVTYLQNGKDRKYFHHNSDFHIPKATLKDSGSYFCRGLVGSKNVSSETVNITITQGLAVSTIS
T12 sequence (Q8N743 26-322 limits assumed): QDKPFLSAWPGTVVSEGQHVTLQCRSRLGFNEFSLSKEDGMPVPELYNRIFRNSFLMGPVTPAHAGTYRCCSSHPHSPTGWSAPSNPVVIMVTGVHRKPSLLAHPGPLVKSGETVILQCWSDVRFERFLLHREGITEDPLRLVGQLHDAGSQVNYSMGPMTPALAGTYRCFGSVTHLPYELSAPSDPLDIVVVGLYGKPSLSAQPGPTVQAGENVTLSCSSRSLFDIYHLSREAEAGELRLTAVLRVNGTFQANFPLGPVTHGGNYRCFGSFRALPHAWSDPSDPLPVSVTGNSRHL
T1 sequence (chain, as listed by the source): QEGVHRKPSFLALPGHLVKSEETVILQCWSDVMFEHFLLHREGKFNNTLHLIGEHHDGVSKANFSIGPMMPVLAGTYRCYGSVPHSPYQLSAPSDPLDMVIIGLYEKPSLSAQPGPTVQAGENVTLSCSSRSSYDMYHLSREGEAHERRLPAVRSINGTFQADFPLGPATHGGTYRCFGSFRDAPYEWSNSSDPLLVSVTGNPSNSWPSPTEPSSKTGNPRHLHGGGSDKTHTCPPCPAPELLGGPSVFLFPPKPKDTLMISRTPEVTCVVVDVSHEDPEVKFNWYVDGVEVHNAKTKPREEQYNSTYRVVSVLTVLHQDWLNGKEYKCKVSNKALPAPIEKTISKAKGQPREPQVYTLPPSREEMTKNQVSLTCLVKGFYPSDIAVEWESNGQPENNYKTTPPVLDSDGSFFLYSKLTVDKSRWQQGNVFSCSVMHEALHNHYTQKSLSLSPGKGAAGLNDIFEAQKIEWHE
T9 sequence (O76036 22-258 limits assumed): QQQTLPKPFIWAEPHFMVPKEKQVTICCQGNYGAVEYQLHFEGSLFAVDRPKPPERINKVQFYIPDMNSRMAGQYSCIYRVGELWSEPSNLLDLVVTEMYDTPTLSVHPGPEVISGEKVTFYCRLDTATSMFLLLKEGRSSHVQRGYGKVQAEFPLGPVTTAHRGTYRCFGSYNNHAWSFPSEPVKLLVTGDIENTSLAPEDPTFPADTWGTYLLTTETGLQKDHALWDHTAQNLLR
T21 sequence (Q8N109 22-238 limits assumed): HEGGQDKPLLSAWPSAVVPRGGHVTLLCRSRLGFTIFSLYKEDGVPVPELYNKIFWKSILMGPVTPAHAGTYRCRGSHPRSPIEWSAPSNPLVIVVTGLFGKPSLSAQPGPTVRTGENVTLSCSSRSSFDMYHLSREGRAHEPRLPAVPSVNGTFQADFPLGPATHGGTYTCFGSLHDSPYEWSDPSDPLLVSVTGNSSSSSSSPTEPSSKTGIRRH
T10 sequence (Q99706 24-242 limits assumed): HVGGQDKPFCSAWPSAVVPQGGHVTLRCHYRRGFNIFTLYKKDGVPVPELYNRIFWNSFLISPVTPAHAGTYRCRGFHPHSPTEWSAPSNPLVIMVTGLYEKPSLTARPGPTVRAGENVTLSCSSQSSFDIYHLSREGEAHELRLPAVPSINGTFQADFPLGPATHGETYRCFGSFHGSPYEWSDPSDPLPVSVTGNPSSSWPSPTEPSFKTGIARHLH
T15 sequence (Q8N423 22-458 limits assumed): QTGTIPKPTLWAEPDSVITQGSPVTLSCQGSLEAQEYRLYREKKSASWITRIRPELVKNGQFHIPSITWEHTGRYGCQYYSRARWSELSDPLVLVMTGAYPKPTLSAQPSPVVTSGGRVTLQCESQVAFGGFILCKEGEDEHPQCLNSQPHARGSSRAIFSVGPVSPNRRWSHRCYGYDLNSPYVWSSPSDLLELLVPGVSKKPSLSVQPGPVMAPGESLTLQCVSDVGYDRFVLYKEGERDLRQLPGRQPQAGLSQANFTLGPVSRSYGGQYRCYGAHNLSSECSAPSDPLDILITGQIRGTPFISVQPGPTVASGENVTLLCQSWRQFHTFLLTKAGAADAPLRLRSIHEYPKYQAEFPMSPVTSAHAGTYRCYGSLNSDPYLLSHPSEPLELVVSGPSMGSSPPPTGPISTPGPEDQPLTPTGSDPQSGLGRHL
Chain of KIR2DS3 (Fc, prepared in-house) (Q14952 22-245 limits assumed): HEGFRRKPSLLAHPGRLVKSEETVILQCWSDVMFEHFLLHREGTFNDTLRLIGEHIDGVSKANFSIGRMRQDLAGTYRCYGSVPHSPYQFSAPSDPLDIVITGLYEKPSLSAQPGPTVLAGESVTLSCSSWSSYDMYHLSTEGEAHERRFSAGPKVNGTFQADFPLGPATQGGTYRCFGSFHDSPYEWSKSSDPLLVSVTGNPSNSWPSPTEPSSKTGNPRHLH
T20 sequence (Q07444 94-240 limits assumed): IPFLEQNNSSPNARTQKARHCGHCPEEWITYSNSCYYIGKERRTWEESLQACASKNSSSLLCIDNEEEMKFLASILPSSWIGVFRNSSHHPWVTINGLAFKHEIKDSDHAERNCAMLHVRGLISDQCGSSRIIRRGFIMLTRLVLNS

- binding result [1]: no binding (tested: 0.1 µM)
- binding result [2]: no binding (tested: 0.1 µM)
- binding result [3]: no binding (tested: 0.1 µM)
- binding result [4]: no binding (tested: 0.1 µM)
- binding result [5]: no binding (tested: 0.1 µM)
- binding result [6]: no binding (tested: 0.1 µM)
- binding result [7]: no binding (tested: 0.1 µM)
- binding result [8]: no binding (tested: 0.1 µM)
- binding result [9]: no binding (tested: 0.1 µM)
- binding result [10]: no binding (tested: 0.1 µM)
- binding result [11]: no binding (tested: 0.1 µM)
- binding result [12]: no binding (tested: 0.1 µM)
- binding result [13]: no binding (tested: 0.1 µM)
- binding result [14]: no binding (tested: 0.1 µM)
- binding result [15]: no binding (tested: 0.1 µM)
- binding result [16]: no binding (tested: 0.1 µM)
- binding result [17]: no binding (tested: 0.1 µM)
- binding result [18]: no binding (tested: 0.1 µM)
- binding result [19]: no binding (tested: 0.1 µM)
- binding result [20]: no binding (tested: 0.1 µM)
- binding result [21]: no binding (tested: 0.1 µM)
- binding result [22]: no binding (tested: 0.1 µM)
- binding result [23]: no binding (tested: 0.1 µM)
- binding result [24]: no binding (tested: 0.1 µM)
- binding result [25]: no binding (tested: 0.1 µM)
- binding result [26]: no binding (tested: 0.1 µM)
B1: membrane-type a2DL2/3-DS4 scFv (scFv)
scFv: DYKDDDDKGSGEVQLVQSGAEVKKPGSSVKVSCKASGGTFSSYAISWVRQAPGQGLEWMGGIIPIFGTANYAQKFQDRVTITADKSTSTAYMELSSLRSEDTAVYYCARGSRNFDYWGQGTLVTVSSGGGGSGGGGSGGGGSAIRMTQSPSSLSASVGDRVTIPCRASQSIGSYLNWYQQKPGKAPNLLIYAASSLQSGVPSRFSGSGSGTDFTLTISSLQPEDFATYYCQQSYSTPLTFGGGTKVDIKALSNSIMYFSHFVPVFLPAKPTTTPAPRPPTPAPTIASQPLSLRPEACRPAAGGAVHTRGLDFACDIYIWAPLAGTCGVLLLSLVITLYCNH
notes: On K562 cells

- binding result [1]: no binding (tested: 0.1 µM)
- binding result [2]: no binding (tested: 0.1 µM)
- binding result [3]: no binding (tested: 0.1 µM)
- binding result [4]: no binding (tested: 0.1 µM)
- binding result [5]: no binding (tested: 0.1 µM)
- binding result [6]: no binding (tested: 0.1 µM)
- binding result [7]: no binding (tested: 0.1 µM)
- binding result [8]: no binding (tested: 0.1 µM)
- binding result [9]: no binding (tested: 0.1 µM)
- binding result [10]: no binding (tested: 0.1 µM)
- binding result [11]: no binding (tested: 0.1 µM)
- binding result [12]: no binding (tested: 0.1 µM)
- binding result [13]: no binding (tested: 0.1 µM)
- binding result [14]: no binding (tested: 0.1 µM)
- binding result [15]: no binding (tested: 0.1 µM)
- binding result [16]: no binding (tested: 0.1 µM)
- binding result [17]: no binding (tested: 0.1 µM)
- binding result [18]: no binding (tested: 0.1 µM)
- binding result [19]: no binding (tested: 0.1 µM)
- binding result [20]: no binding (tested: 0.1 µM)
- binding result [21]: no binding (tested: 0.1 µM)
- binding result [22]: no binding (tested: 0.1 µM)
- binding result [23]: no binding (tested: 0.1 µM)
- binding result [24]: no binding (tested: 0.1 µM)
- binding result [25]: no binding (tested: 0.1 µM)
- binding result [26]: no binding (tested: 0.1 µM)
B2: membrane-type a2DL2/3-DS10 scFv (scFv)
scFv: DYKDDDDKGSGQVQLVQSGAEVKKPGSSVKVSCKASGGTFSSFAISWVRQAPGQGLEWMGGIIPIFGTANYAQKFQGRVTITADESTSTAYMELSSLRSEDTAVYYCARVSGTTGGYYYGMDVWGQGTLVTVSSGGGGSGGGGSGGGGSAIRMTQSPSSVSASVGDRVTITCRASQGIGNWLAWYQQKPGRAPKLLISTASSLQSGVPSRFSGGGSGRGFTLTISSLQLEDFATYYCQQSYITPWTFGQGTKVEIKALSNSIMYFSHFVPVFLPAKPTTTPAPRPPTPAPTIASQPLSLRPEACRPAAGGAVHTRGLDFACDIYIWAPLAGTCGVLLLSLVITLYCNH
notes: On K562 cells; also called a2DL2/3-DS10 WT scFv

- binding result [27]: binds
B3: Fab fragment of a2DL2/3-DS10 (Fab, V domains shown)
VH: QVQLVQSGAEVKKPGSSVKVSCKASGGTFSSFAISWVRQAPGQGLEWMGGIIPIFGTANYAQKFQGRVTITADESTSTAYMELSSLRSEDTAVYYCARVSGTTGGYYYGMDVWGQGTLVTVSS
VL: AIRMTQSPSSVSASVGDRVTITCRASQGIGNWLAWYQQKPGRAPKLLISTASSLQSGVPSRFSGGGSGRGFTLTISSLQLEDFATYYCQQSYITPWTFGQGTKVEIKV
notes: Signal peptides left out; also called a2DL2/3-DS10 Fab; 61_3092_02_F10_Fab
